B1: Azoarcus group I ribozyme (parent)
chain: GUGCCUUGCGCCGGGAAACCACGCAAGGGAUGGUGUCAAAUUCGGCGAAACCUAAGCGCCCGCCCGGGCGUAUGGCAACGCCGAGCCAAGCUUCGGCGCCUGCGCCGAUGAAGGUGUAGAGACUAGACGGCACCCACCUAAGGCAAACGCUAUGGUGAAGGCAUAGUCCAGGGAGUGGCGAAAGUCACACAAACCGG

The values below come from the RNAGym collection of RNA variant scans (doi:10.1093/molbev/msab373).

Variants of B1 are the subject of the data set. In words: reverse-splicing fitness (ratio to wild type); higher = more active; in vitro selection; Mg2+ level not given. The procedure, abridged:
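An in vitro group I ribozyme library with randomized positions was T7-transcribed and gel-purified. In triplicate, 10 pmol RNA in EPPS pH 7.5 was reacted with 50 pmoles of a 30-nt RNA substrate for 1 h at 37 °C across several added MgCl2 levels (1–48 mM), then stopped with EDTA. Products were reverse transcribed from a substrate-complementary primer, PCR-amplified and sequenced (HiSeq 4000). Fitness is a variant's read proportion after selection over that before, normalised to wild type.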
Take C82A A111G A120G A145G C169U U176G: the reverse-splicing fitness was 0.00492.

C82A A111G A120G A145G C169U U176A: the reverse-splicing fitness amounted to 0.019.

On to C82A A111G A120C C150U C169A U176G, for which the reverse-splicing fitness was 0.00635.

Regarding C82A A111G A120C C150U C169A U176C, the reverse-splicing fitness stood at 0.0154.

Turning to C82A A111G A120C C150U C169A U176A, the reverse-splicing fitness is 0.0187.

As to C82A A111G A120G C150G C169A, the reverse-splicing fitness is 0.00929.

As for C82A A111G A120G C150G C169U, the reverse-splicing fitness came out at 0.00856.

In the case of C82A A111G A120G C150G C169G, the reverse-splicing fitness was determined as 0.00739.

With C82A A111G A120C C150G C169A U176A, the reverse-splicing fitness was 0.0116.

For C82A A111G A120C C150G C169A U176G, the reverse-splicing fitness was 0.00791.

As to C82A A111G A120C C150G C169A U176C, the reverse-splicing fitness was 0.0139.

For the variant C82A A111G A120C C169G U176C, the reverse-splicing fitness worked out at 0.0237.

For C82A A111G A120C C169G U176A, the reverse-splicing fitness was 0.0206.

Turning to C82A A111G A120C C169G U176G, the reverse-splicing fitness worked out at 0.00548.

As for C82A A111G A120G A145G, the reverse-splicing fitness worked out at 0.0165.

As for C82A A111G A120G A145U, the reverse-splicing fitness was found to be 0.015.

As for C82A A111G A120G A145C, the reverse-splicing fitness worked out at 0.0136.

Consider C82A A111G A120C A145U C169U U176C, for which the reverse-splicing fitness turned out to be 0.0131.

Turning to C82A A111G A120C A145U C169U U176G, the reverse-splicing fitness came to 0.00505.

Turning to C82A A111G A120C A145U C169U U176A, the reverse-splicing fitness was 0.0152.

With C82A A111G A120G A145C C150G C169A U176C, the reverse-splicing fitness amounted to 0.00743.

Consider C82A A111G A120G A145C C150G C169A U176A, for which the reverse-splicing fitness was 0.00923.

C82A A111G A120G A145C C150G C169A U176G: the reverse-splicing fitness worked out at 0.00564.

On to C82A A111G A120C C169G, for which the reverse-splicing fitness was found to be 0.00888.

Regarding C82A A111G A120C C169A, the reverse-splicing fitness amounted to 0.00875.

In the case of C82A A111G A120C C169U, the reverse-splicing fitness came to 0.0139.

C82A A111G A120G A145C C169G U176A: the reverse-splicing fitness came to 0.0248.

Consider C82A A111G A120G A145C C169G U176C, for which the reverse-splicing fitness is 0.0178.

Take C82A A111G A120G A145C C169G U176G: the reverse-splicing fitness stood at 0.0046.

Take C82A A111G A120G A145G C150U C169A U176G: the reverse-splicing fitness was 0.0063.

For C82A A111G A120G A145G C150U C169A U176A, the reverse-splicing fitness is 0.016.

For the variant C82A A111G A120G A145G C150U C169A U176C, the reverse-splicing fitness was 0.0174.

As to C82A A111G A120G A145C C150A C169U U176G, the reverse-splicing fitness worked out at 0.00484.

Regarding C82A A111G A120G A145C C150A C169U U176A, the reverse-splicing fitness stood at 0.0207.

For the variant C82A A111G A120G A145C C150A C169U U176C, the reverse-splicing fitness stood at 0.0117.

Regarding C82A A111G A120C C150G C169G U176C, the reverse-splicing fitness was found to be 0.00485.

Take C82A A111G A120C C150G C169G U176A: the reverse-splicing fitness came out at 0.00731.

In the case of C82A A111G A120C C150G C169G U176G, the reverse-splicing fitness was found to be 0.00561.

On to C82A A111G A120C C150U U176G, for which the reverse-splicing fitness turned out to be 0.01.

Turning to C82A A111G A120C C150U U176A, the reverse-splicing fitness was found to be 0.0143.

In the case of C82A A111G A120C C150U U176C, the reverse-splicing fitness is 0.0238.

As to C82A A111G A120G A145C C150U C169U U176A, the reverse-splicing fitness was found to be 0.0203.

With C82A A111G A120G A145C C150U C169U U176G, the reverse-splicing fitness was determined as 0.00537.

Regarding C82A A111G A120G A145C C150U C169U U176C, the reverse-splicing fitness turned out to be 0.0113.

On to C82A A111G A120G A145C C150G C169U, for which the reverse-splicing fitness was found to be 0.00786.

Turning to C82A A111G A120G A145C C150G C169G, the reverse-splicing fitness was determined as 0.00751.

Regarding C82A A111G A120G A145C C150G C169A, the reverse-splicing fitness stood at 0.00928.

Regarding C82A A111G A120G A145C C169U U176G, the reverse-splicing fitness is 0.00388.

As for C82A A111G A120G A145C C169U U176A, the reverse-splicing fitness was determined as 0.0193.

On to C82A A111G A120G A145C C169U U176C, for which the reverse-splicing fitness was found to be 0.0129.

For the variant C82A A111G A120G A145U C150G C169G, the reverse-splicing fitness stood at 0.00677.

Consider C82A A111G A120G A145U C150G C169A, for which the reverse-splicing fitness was found to be 0.00989.

As to C82A A111G A120G A145U C150G C169U, the reverse-splicing fitness amounted to 0.00867.

Regarding C82A A111G A120G A145U C150U U176A, the reverse-splicing fitness was found to be 0.00996.

C82A A111G A120G A145U C150U U176G: the reverse-splicing fitness was 0.00595.

Turning to C82A A111G A120G A145U C150U U176C, the reverse-splicing fitness is 0.014.

C82A A111G A120G A145C C150A C169G U176C: the reverse-splicing fitness came to 0.0158.

With C82A A111G A120G A145C C150A C169G U176A, the reverse-splicing fitness came to 0.027.

C82A A111G A120G A145C C150A C169G U176G: the reverse-splicing fitness was found to be 0.00565.

Take C82A A111G A120G A145G C150A U176A: the reverse-splicing fitness was determined as 0.0103.

Consider C82A A111G A120G A145G C150A U176G, for which the reverse-splicing fitness is 0.00899.

Consider C82A A111G A120G A145G C150A U176C, for which the reverse-splicing fitness amounted to 0.0203.

Take C82A A111G A120C C169U U176C: the reverse-splicing fitness is 0.0138.

On to C82A A111G A120C C169U U176A, for which the reverse-splicing fitness is 0.016.

On to C82A A111G A120C C169U U176G, for which the reverse-splicing fitness is 0.00535.

On to C82A A111G A120G A145U C169U U176A, for which the reverse-splicing fitness was found to be 0.0204.

With C82A A111G A120G A145U C169U U176G, the reverse-splicing fitness was found to be 0.00416.

For the variant C82A A111G A120G A145U C169U U176C, the reverse-splicing fitness came to 0.0158.

As for C82A A111G A120G A145U C150U C169G U176G, the reverse-splicing fitness came to 0.00537.

For C82A A111G A120G A145U C150U C169G U176A, the reverse-splicing fitness stood at 0.014.

Regarding C82A A111G A120G A145U C150U C169G U176C, the reverse-splicing fitness came to 0.0137.

On to C82A A111G A120G A145G C150G C169G U176G, for which the reverse-splicing fitness amounted to 0.00614.

C82A A111G A120G A145G C150G C169G U176A: the reverse-splicing fitness was found to be 0.0101.

C82A A111G A120G A145G C150G C169G U176C: the reverse-splicing fitness stood at 0.0114.

For C82A A111G A120G A145G C169A, the reverse-splicing fitness is 0.0101.

As to C82A A111G A120G A145G C169U, the reverse-splicing fitness was 0.0111.

As to C82A A111G A120G A145G C169G, the reverse-splicing fitness amounted to 0.0122.

Consider C82A A111G A120C A145U C150U C169U U176A, for which the reverse-splicing fitness was 0.0144.

In the case of C82A A111G A120C A145U C150U C169U U176C, the reverse-splicing fitness was determined as 0.0124.

As to C82A A111G A120C A145U C150U C169U U176G, the reverse-splicing fitness worked out at 0.00546.

For the variant C82A A111G A120G A145U C150G, the reverse-splicing fitness worked out at 0.00709.

With C82A A111G A120G A145U C150A, the reverse-splicing fitness stood at 0.00927.

For the variant C82A A111G A120G A145U C150U, the reverse-splicing fitness amounted to 0.0134.

With C82A A111G A120G A145G C150A C169U U176G, the reverse-splicing fitness came to 0.00673.
